# B1: DnaJ homolog subfamily C member 3 (Mus musculus), Q91YW3 (parent)
# chain: MVAPGSVGSRLGAVFPFLLVLVDLQYEGAECGVNADVEKHLELGKKLLAAGQLADALSQFHAAVDGDPDNYIAYYRRATVFLAMGKSKAALPDLTKVIALKMDFTAARLQRGHLLLKQGKLDEAEDDFKKVLKSNPSEQEEKEAESQLVKADEMQRLRSQALDAFDGADYTAAITFLDKILEVCVWDAELRELRAECFIKEGEPRKAISDLKAASKLKSDNTEAFYKISTLYYQLGDHELSLSEVRECLKLDQDHKRCFAHYKQVKKLNKLIESAEELIRDGRYTDATSKYESVMKTEPSVAEYTVRSKERICHCFSKDEKPVEAIRICSEVLQMEPDNVNALKDRAEAYLIEEMYDEAIQDYEAAQEHNENDQQIREGLEKAQRLLKQSQKRDYYKILGVKRNAKKQEIIKAYRKLALQWHPDNFQNEEEKKKAEKKFIDIAAAKEVLSDPEMRKKFDDGEDPLDAESQQGGGGNPFHRSWNSWQGFNPFSSGGPFRFKFHFN
# Variants of: B1
# Details: with bip_human HSPA5, P11021
# bip_human HSPA5, P11021, sequence (P11021 whole entry): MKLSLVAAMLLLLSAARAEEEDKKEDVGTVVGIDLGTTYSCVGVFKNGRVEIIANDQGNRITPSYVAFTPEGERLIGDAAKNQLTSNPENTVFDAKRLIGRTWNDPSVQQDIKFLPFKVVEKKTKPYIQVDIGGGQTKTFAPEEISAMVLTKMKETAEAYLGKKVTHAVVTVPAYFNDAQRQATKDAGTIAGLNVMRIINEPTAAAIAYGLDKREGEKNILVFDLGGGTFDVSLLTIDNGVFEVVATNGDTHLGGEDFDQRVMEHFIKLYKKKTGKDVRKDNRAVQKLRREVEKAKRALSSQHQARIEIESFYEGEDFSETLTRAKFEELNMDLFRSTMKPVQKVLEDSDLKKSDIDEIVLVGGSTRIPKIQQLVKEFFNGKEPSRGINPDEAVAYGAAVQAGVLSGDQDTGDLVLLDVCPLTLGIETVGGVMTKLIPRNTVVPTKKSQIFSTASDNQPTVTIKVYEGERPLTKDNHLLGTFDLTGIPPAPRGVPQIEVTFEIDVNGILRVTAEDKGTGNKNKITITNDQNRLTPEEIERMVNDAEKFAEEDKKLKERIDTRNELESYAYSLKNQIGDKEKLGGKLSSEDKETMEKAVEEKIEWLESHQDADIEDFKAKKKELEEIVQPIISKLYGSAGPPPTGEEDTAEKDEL
row,effect of a mutation on the interaction,Variant
1,disrupting interaction,H422Q
